This experiment concerns the target T1, recombinant human ROBO4 extracellular region polypeptide rROBO4-ECD (human, UniProt Q8WZ75 28-461).
T1 construct: Expressed from pEF6/V5-His-TOPO in FreeStyle 293-F cells; also called human ROBO4-ECD
T1 sequence: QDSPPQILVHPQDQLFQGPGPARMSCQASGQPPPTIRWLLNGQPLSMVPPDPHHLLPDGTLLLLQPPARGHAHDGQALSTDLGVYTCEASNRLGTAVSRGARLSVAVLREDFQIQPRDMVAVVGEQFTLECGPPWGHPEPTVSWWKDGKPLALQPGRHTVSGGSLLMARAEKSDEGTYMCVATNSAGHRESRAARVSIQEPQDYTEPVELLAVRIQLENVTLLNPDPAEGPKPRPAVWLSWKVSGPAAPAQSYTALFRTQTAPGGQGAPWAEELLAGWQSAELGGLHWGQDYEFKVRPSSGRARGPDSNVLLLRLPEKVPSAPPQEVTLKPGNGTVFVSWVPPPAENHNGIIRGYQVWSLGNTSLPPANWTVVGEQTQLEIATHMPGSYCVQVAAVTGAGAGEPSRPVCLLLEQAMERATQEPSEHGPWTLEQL
The experiment is described as follows: SPR (Biacore 3000), antibody captured via anti-human IgG on CM5, rROBO4-ECD as analyte, 1:1 model. As to the method: The dissociation constant between each antibody and rROBO4-ECD was determined with the antibody immobilized as a ligand and the antigen as an analyte using Biacore 3000 (manufactured by GE Healthcare Bio-Sciences Corp.). Approximately 80 RU of the antibody was bound via an anti-human IgG antibody (manufactured by GE Healthcare Bio-Sciences Corp.) immobilized on a sensor chip CM5 (manufactured by GE Healthcare Bio-Sciences Corp.) by an amine coupling method. The running buffer used was PBS containing 0.05% Surfactant P20. Dilution series solutions (0.1-200 nM) of the antigen were added at a flow rate of 30 μL/min. for 300 seconds onto the antibody-bound chip. Subsequently, a dissociation phase was monitored for 300 seconds. 3 M MgCl₂ was added thereto as a regeneration solution at a flow rate of 10 μL/min. for 30 seconds. Data was analyzed using the 1:1 binding model of analysis software (BIAevaluation Software, version 4.1) to calculate an association rate constant kon, a dissociation rate constant koff, and a dissociation constant (KD; KD=koff/kon).
On the technique in general: SPR reads the build-up and loss of mass on a sensor chip optically.

Numbering of substitutions follows the chain as printed.

B1: humanized MAb1 antibody H-1040 (antibody, human IgG2, kappa, V domains shown)
VH: EVQLVESGGGLVQPGGSLRLSCAASGFTFSTYAMSWVRQAPGKGLEWVATISNGGTYTYYPDSVKGRFTISRDNAKNTLYLQMNSLRAEDTAVYYCARLIYYDYLDYWGQGTLVTVSS
VL: DIVMTQSPLSLPVTLGEPASISCRSSQSLENSNGNTYLNWYLQKPGQSPQLLIYRVSNRFSGVPDRFSGSGSGTDFTLKISRVEAEDVGVYYCLQVTHVPWTFGPGTKVDIKR
notes: Human IgG2 / kappa constant regions; also called hMAb1-H1-type heavy chain + hMAb1-L1-type light chain
As a reminder, the Kd is the concentration at which binding is half-saturated. Take B1: the dissociation constant Kd is 410 pM.

B2: humanized MAb1 antibody H-2040 (antibody, human IgG2, kappa, V domains shown)
VH: B1 VH with G44R
VL: B1 VL
notes: Human IgG2 / kappa constant regions; also called hMAb1-H3-type heavy chain + hMAb1-L1-type light chain
Regarding B2, the equilibrium dissociation constant (Kd) came out at 400 pM.
